Assay results from publication PMC13186709.

What was measured:
[1] = molecular target: T1, Egalitarian (Egl);Bicaudal D (BicD) (Drosophila melanogaster;Drosophila …, UniProt Q9W1K4;P16568 1-1004;1-782, |); assay: MST; two experiments, different preps; MST: 1 nM Cy5-RNA in GF150 (25 mM HEPES pH 7.3, 150 mM KCl, 1 mM MgCl2, 0.1 mM Mg-ATP, 5 mM DTT, 10% glycerol) + 0.05% Tween-20, 15 min, room temperature; Egl-BicD conc. as 2:2 complex; conditions: protein: recombinant;recombinant; tags: C-terminal TEV-ZZ (cleaved);; chain copies: 2;2; label: 5'-Cy5; straight hairpin
T1 sequence (chain, as listed by the source |, chain 1 of 2): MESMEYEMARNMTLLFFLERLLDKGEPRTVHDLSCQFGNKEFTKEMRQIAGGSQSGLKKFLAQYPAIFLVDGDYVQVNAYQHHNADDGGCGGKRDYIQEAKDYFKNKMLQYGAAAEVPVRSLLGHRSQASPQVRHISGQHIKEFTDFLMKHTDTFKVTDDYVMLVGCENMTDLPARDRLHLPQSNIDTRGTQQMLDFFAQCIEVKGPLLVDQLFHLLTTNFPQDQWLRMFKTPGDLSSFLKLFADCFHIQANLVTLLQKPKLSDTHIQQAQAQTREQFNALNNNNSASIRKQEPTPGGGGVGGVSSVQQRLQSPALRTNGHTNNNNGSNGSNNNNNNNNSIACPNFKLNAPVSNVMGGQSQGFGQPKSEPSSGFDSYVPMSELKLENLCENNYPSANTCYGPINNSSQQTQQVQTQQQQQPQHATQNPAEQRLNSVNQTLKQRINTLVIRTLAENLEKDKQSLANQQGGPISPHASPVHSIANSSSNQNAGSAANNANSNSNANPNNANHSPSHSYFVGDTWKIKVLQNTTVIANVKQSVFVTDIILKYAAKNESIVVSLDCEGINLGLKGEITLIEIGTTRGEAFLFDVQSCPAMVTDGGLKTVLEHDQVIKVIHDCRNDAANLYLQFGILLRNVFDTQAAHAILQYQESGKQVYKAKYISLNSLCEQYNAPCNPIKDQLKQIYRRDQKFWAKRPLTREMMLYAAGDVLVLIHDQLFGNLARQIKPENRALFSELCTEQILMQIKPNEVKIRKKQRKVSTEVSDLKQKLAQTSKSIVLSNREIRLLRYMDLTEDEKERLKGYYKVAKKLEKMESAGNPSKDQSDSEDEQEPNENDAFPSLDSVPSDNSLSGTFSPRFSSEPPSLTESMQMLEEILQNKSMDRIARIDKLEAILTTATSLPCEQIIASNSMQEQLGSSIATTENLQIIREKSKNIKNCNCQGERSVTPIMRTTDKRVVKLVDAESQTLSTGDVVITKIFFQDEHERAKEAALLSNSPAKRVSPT
T1 sequence (P16568 whole entry, chain 2 of 2): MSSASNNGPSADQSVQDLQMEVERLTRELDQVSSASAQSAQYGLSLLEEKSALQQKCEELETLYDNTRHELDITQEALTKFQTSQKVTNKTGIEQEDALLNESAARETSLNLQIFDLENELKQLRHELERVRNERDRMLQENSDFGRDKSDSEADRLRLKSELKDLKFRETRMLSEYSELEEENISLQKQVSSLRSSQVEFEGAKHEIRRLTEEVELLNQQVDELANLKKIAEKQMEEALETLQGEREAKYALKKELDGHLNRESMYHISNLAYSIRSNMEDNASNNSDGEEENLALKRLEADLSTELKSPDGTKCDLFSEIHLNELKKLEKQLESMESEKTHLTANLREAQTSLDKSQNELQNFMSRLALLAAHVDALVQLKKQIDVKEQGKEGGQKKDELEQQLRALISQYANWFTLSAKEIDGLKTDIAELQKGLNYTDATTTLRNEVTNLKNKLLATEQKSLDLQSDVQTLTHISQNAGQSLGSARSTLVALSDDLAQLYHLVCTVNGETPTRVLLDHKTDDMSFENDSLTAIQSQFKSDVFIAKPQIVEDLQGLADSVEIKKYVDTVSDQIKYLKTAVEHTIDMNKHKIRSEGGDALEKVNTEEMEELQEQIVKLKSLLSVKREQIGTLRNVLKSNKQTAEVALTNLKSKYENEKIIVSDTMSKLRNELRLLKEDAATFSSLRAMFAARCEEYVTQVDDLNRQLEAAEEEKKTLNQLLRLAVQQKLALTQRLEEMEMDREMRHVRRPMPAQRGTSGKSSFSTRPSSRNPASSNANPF

[2] = molecular target: T1, Egalitarian (Egl);Bicaudal D (BicD); assay: MST; MST: 1 nM Cy5-RNA in GF150 (25 mM HEPES pH 7.3, 150 mM KCl, 1 mM MgCl2, 0.1 mM Mg-ATP, 5 mM DTT, 10% glycerol) + 0.05% Tween-20, 15 min, room temperature; Egl-BicD conc. as 2:2 complex; conditions: protein: recombinant;recombinant, tags: C-terminal TEV-ZZ (cleaved);, chain copies: 2;2, label: 5'-Cy5
[3] = molecular target: T1, Egalitarian (Egl);Bicaudal D (BicD); assay: MST; prep 4; MST: 1 nM Cy5-RNA in GF150 (25 mM HEPES pH 7.3, 150 mM KCl, 1 mM MgCl2, 0.1 mM Mg-ATP, 5 mM DTT, 10% glycerol) + 0.05% Tween-20, 15 min, room temperature; Egl-BicD conc. as 2:2 complex; conditions: protein: recombinant;recombinant; tags: C-terminal TEV-ZZ (cleaved);; chain copies: 2;2; label: 5'-Cy5; hairpin
[4] = molecular target: T1, Egalitarian (Egl);Bicaudal D (BicD); assay: single-molecule motility; with human dynein and pig dynactin; single RNA per motile complex; MST: 1 nM Cy5-RNA in GF150 (25 mM HEPES pH 7.3, 150 mM KCl, 1 mM MgCl2, 0.1 mM Mg-ATP, 5 mM DTT, 10% glycerol) + 0.05% Tween-20, 15 min, room temperature; Egl-BicD conc. as 2:2 complex; conditions: protein: recombinant;recombinant; tags: C-terminal TEV-ZZ (cleaved);; chain copies: 2;2; label: Cy3- or Cy5-UTP; two hairpins

AAGGGACAAGCGCAAGGUCAUUCGCAAGAGUGGCCUUGCGCUUGUCCC (structured_RNA) [2NUE RNA]: no binding [1].

B1: hSL2 (structured_RNA)
RNA: AACUUCGUUGGCUUAGUUUCCUGGCUUAUAUCCUGGAAACCCGUCGACGAGG
Binder B1 has a Kd ([2]; hairpin with bulges) of 603 ± 79 nM.

B2: TLS∆b (structured_RNA)
RNA: UUACACCACUUGAUUGUAUUUUUAAAUUAAUUCUUAAAAAUACAAUUAAGAUCACUCU
B2 showed a Kd [3] of 2800 ± 510 nM.

B3: hSL1∆b (structured_RNA)
RNA: UGCGCGUAGACAUUUCACAUCAUUCGCCGGGAUUGGCAAAUGUUGUGAAGUGUUGCAAACAU
In the case of B3, the Kd ([2]; hairpin) is reported as 204 ± 36 nM.

B4: KSE (structured_RNA)
RNA: AAACCCAAUUGAACAUAUAGUGGAAUUAUUAUUAUCAAUGGGGAAUAUUUAACCC
B4 showed a Kd ([2]; hairpin) of 507 ± 93 nM.

B5: TLS-2xGCED1 (structured_RNA)
RNA: UUACACCACUUGAGGGUAUUUUUAAAUUAAUUCUUAAAAACUACACCUUAAGAUCACUCU
B5 gave a Kd ([2]; hairpin with 3'-strand bulges) of 376 ± 154 nM.

B6: TLS-AUED1/ED2 (structured_RNA)
RNA: UUACACCACUUGAAUGUAUUUUAAAAUUAAUUCUUUAAAACUACAAUUUAAGAUCACUCU
B6 gave a Kd ([2]; hairpin with 3'-strand bulges) of 746 ± 91 nM.

B7: TLS-GCED2 (structured_RNA)
RNA: UUACACCACUUGAUUGUAUUUUGAAAUUAAUUCUUCAAAACUACAAAUUAAGAUCACUCU
B7 showed a Kd ([2]; hairpin with 3'-strand bulges) of 425 ± 140 nM.

B8: TLS-CGED1/ED2 (structured_RNA)
RNA: UUACACCACUUGACUGUAUUUUCAAAUUAAUUCUUGAAAACUACAAGUUAAGAUCACUCU
B8 gave a Kd ([2]; hairpin with 3'-strand bulges) of 345 ± 34 nM.

B9: TLS-GCED1/ED2 (structured_RNA)
RNA: UUACACCACUUGAGUGUAUUUUGAAAUUAAUUCUUCAAAACUACAACUUAAGAUCACUCU
B9 was tested, and the Kd ([2]; hairpin with 3'-strand bulges) was 4110 ± 1540 nM.

B10: TLS-2xGCED1+GCED2 (structured_RNA)
RNA: UUACACCACUUGAGGGUAUUUUGAAAUUAAUUCUUCAAAACUACACCUUAAGAUCACUCU
B10 showed a Kd ([2]; hairpin with 3'-strand bulges) of 1510 ± 210 nM.

B11: TLS-KSE (structured_RNA)
RNA: GUCAAAGCUUACCUUGAUUGUAUUUUUAAAUUAAUUCUUAAAAACUACAAAUUAAGUUGCAAACAUGCGAAUCCUAAACUCGGUUCACAACUUCCCCAAUUGAACAUAUAGUGGAAUUAUUAUUAUCAAUGGGGAAUAUGCUAGC
B11: binds [4].

B12: GLS (MST) (structured_RNA)
RNA: AAAGUAAUUUUCGUGCUCUCAACAAUUGUCGCCGUCACAGAUUGUUGUUCGAGCCGAAUCUUACU
With B12 the Kd ([2]; hairpin with bulges) was 39 ± 14 nM.

B13: bcdSLV (MST) (structured_RNA)
RNA: AAAAAUGUUUCUCUUGGGCGUAAUCUCAUACAAUGAUUACCCUUAAAGAUCGAACAUUU
B13 showed a Kd ([2]; hairpin with bulges) of 231 ± 64 nM.
